Measurements reported in article PMC12222027, “In situ structure of a bacterial flagellar motor at subnanometre resolution reveals adaptations for increased torque” (Nature Microbiology, 2025).

Assays:
[1] = target: FlgP (basal disk protein, C. jejuni 81-176, in the motor in situ) (C. jejuni 81-176 (endogenous in minicells)); assay: cryo-EM structure; in situ single-particle analysis of motors in C. jejuni ΔflhG ΔflaAB minicells; C17 focused refinement of the periplasmic scaffold and first basal disk ring (7.9 Å); AlphaFold2 models docked or flexibly fitted into the map
[2] = target: the molecule itself; assay: as above

How did the stoichiometry N [1] turn out when “FlgP (basal disk protein, C. jejuni 81-176, in the motor in situ) (natural protein)” was run?
Its stoichiometry N is 51.

B1: FliL (C. jejuni 81-176, endogenous) (natural protein)
chain: MDEELENEETKKKKGGSLVIIIVILLFVLLLSIMGVIAWLISSSSSDESEVKEAPKEEAKADKPKVSAPTQRGSDFANIGPMYPLDPFTLNLLSDSGSRYVKCTIELEQNSELLKPELDKKVPVIRDIIIRTLTAKTFEEVSTQKGKERLKDELVGKINEILTDGFIKNVYFTDFVVS
notes: FliL, flagellar protein forming an arc of four copies around the MotB linker in each asymmetric unit; source: endogenous, C. jejuni 81-176: ΔflhG ΔflaAB minicells imaged in situ; lysates of formaldehyde-crosslinked ΔpflA or ΔpflB cells carrying the PflA-FLAG or PflB-FLAG plasmid
For B1, which “stoichiometry N” value [2] is on record?
The value was 4.
